Measurements from patent US20160184454A1, “RAB7L1 INTERACTS WITH LRRK2 TO MODIFY INTRANEURONAL PROTEIN SORTING AND PARKINSON'S DISEASE RISK” (THE TRUSTEES OF COLUMBIA UNIVERSITY IN THE CITY OF NEW YORK, priority 2013, published 2016).

Columns and labels:
[1] = system: rat primary cortical neurons; assay: Neurite length assay in transfected primary cortical neuron cultures; assay type: cell-based; conditions: for LRRK2 mutation-induced neurite length phenotype: co-transfection with LRRK2 G2019S (0.5 μg/well), test vector 1 μg/well
From the text: As 5 candidate genes are present within the PARK16 locus (SLC45A3, NUCKS, RAB7L1, SLC41A1, and PM20D1), each of the genes were experimentally screened for a functional interaction with LRRK2 (FIG. 2A). A previously-described primary rat neuron in vitro culture model was used, in which transient expression of familial PD-associated LRRK2 G2019S or R1441C mutant alleles leads to a marked reduction in neurite process length (MacLeod et al., 2006). […] RAB7L1 is a small cytosolic GTPase, structurally distinct from RAB7 despite its name (also known as RAB29) (Shimizu et al., 1997). […] But the function of RAB7L1 in CNS neurons remains unknown. Orthologues of RAB7L1 in other organisms, including C. elegans Glo-1 and Drosophila melanogaster Lighloid, have been implicated in trafficking to lysosome-related organelles (Hermann et al., 2005) and in the regulation of neurite process length (Grill et al., 2007), reminiscent of LRRK2 mutant phenotypes (MacLeod et al., 2006). Thus this gene was of particular interest.
Sprague-Dawley rat or mouse PI primary dissociated cortical cultures were prepared and transfected essentially as described (Xia et al., 1996) with the following modifications: cells were plated at high density, approximately 250,000 cells/cm2, in 24-well plates with 500 ul medium/well. Culture medium used for plating cells was Neurobasal-A supplemented with 2% B-27 and 10% FBS. At 1 day after plating, medium was changed to reduced serum (1% FBS+added antimitotic agents: 70 μM uridine and 25 μM 5-fluorodeoxyuridine) and replaced weekly thereafter; for transfections no DMSO was added to the transfection mixture, cells were not subjected to glycerol shock, and a total of 3 μg plasmid DNA was used per well. Cells were fixed in 4% PFA and immunostained with mouse α-RAB7L1 (Santa Cruz, 1:100), and rabbit monoclonal α-LRRK2 (Michal J. Fox Foundation MJFF4, 1:100), then with appropriate fluorescent secondaries (Jackson, 1:1000-2000). Neurite length and neurite puncta (defined as swellings greater than 2 um in diameter) were counted for at least 20 neurons per condition. Mean puncta number per neuron was normalized to total average neurite length versus wild-type LRRK2 transfected cells. Fluorescent microscopy was performed using a Nikon TE 2000-S microscope and a Zeiss LSM510 Meta confocal microscope. Images were analyzed using Image-Pro Plus (Mediacybernetics) software version 5.1.0.20.

[2] = system: primary rat cortical neurons; assay: MPR sorting / colocalization analysis (Golph4, LAMP2, EEA1) in primary neurons; assay type: cell-based; conditions: in the context of LRRK2 G2019S expression
From the text: A cellular role for the LRRK2-RAB7L1 pathway was investigated. Prior studies have broadly implicated both of these gene products in intracellular sorting (Sakaguchi-Nakashima et al., 2007; Spano et al., 2011). Expression of the LRRK2 G2019S clinical mutation in rat primary neurons induced lysosomal swelling, as quantified by immunostaining for the lyosomal marker LAMP2 or using the lysosomotropic dye Lysotracker, consistent with prior work and other studies (Dodson et al., 2012; MacLeod et al., 2006; Stafa et al., 2012) (FIG. 6A). In addition to lysosomal enlargement, there was significant reduction in lysosomal accumulation of the cation-independent mannose 6-phosphate receptor (MPR) in terms of the fraction of LAMP2-positive structures stained with MPR. As MPR is required also for the recruitment of lysosomal hydrolases, its deficiency is predicted to lead to functional lysosomal deficits.
MPR is typically recycled between the endolysosome compartment and the Golgi apparatus by the retromer complex (Arighi et al., 2004; Bonifacino and Hurley, 2008; Seaman, 2009; St. George-Hyslop et al., 2009). […]
Primary rat cortical neurons were cultured on glass coverslips, transfected, and fixed as previously described in this methods section. […] Images were analysed using NIH ImageJ software version 1.45.

[3] = biological target: T1, LRRK2 (Homo sapiens, UniProt Q5S007); assay: Co-immunoprecipitation of LRRK2 and RAB7L1 from transfected HEK293T cells; assay type: binding; conditions: HEK293T lysates, 3×Flag-LRRK2 and GFP-RAB7L1, 48 hrs
T1 construct: Plasmids encoding full-length human LRRK2 (wild-type, G2019S, K1906M) tagged with 3×FLAG at the N-terminus were used; expressed in transfected cells; host or cells: HEK293T
Method: Next more direct evidence of a physical interaction between LRRK2 and RAB7L1 was sought and thus co-immunoprecipitation studies were performed. Epitope-tagged forms of LRRK2 and RAB7L1 (3×Flag-LRRK2 and GFP-RAB7L1) were co-transfected into HEK293T cells, and after 48 hrs, cell lysates were immunoprecipitated with an anti-Flag antibody and then probed for RAB7L1. […] Similarly, immunoprecipitation of RAB7L1 with an antibody to the GFP tag co-precipitated LRRK2 only in the presence of RAB7L1-GFP (FIG. 3B). To probe for an interaction between LRRK2 and RAB7L1 in a more physiological context, RAB7L1 protein was examined in brain lysates from transgenic mice that harbor human wild-type LRRK2 or a familial PD mutant form of LRRK2, R1441C, within a large bacterial artificial chromosome (BAC) construct. Transgenic LRRK2 is broadly expressed throughout the CNS of these mice, although at relatively low levels (FIG. 10A). Brain tissue lysates were immunoprecipitated for LRRK2 protein with a rabbit monoclonal antibody.
For cultured cells, HEK293T cells transfected for 48 hours were lysed with lysis buffer containing 0.5% Triton-X. 1 mM EDTA and protease inhibitor cocktail (Sigma). The lysates were rotated at 4° C. for 1 hr followed by centrifugation at 20,000 g for 5 min. […]

[4] = biological target: T2, human wild-type LRRK2 (BAC transgene, mouse brain) (human, UniProt Q5S007 1-2527); assay: immunoprecipitation of LRRK2 with a rabbit monoclonal antibody from transgenic mouse brain lysates, Western blot for RAB7L1
T2 construct: Untagged human LRRK2 expressed from a BAC construct in transgenic mice; It was immunoprecipitated from whole brain lysate with an anti-LRRK2 antibody; The lysate also holds endogenous mouse LRRK2; also called LRRK2 wild type transgenic (WT); LRRK2-WT

[5] = system: Drosophila dopamine neurons; assay: Surviving dopaminergic neurons in PPM1 and PPL1 clusters of Drosophila CNS mushroom bodies; assay type: in vivo; conditions: co-expression with LRRK2 G2019S

T2 sequence (Q5S007 whole entry R50H): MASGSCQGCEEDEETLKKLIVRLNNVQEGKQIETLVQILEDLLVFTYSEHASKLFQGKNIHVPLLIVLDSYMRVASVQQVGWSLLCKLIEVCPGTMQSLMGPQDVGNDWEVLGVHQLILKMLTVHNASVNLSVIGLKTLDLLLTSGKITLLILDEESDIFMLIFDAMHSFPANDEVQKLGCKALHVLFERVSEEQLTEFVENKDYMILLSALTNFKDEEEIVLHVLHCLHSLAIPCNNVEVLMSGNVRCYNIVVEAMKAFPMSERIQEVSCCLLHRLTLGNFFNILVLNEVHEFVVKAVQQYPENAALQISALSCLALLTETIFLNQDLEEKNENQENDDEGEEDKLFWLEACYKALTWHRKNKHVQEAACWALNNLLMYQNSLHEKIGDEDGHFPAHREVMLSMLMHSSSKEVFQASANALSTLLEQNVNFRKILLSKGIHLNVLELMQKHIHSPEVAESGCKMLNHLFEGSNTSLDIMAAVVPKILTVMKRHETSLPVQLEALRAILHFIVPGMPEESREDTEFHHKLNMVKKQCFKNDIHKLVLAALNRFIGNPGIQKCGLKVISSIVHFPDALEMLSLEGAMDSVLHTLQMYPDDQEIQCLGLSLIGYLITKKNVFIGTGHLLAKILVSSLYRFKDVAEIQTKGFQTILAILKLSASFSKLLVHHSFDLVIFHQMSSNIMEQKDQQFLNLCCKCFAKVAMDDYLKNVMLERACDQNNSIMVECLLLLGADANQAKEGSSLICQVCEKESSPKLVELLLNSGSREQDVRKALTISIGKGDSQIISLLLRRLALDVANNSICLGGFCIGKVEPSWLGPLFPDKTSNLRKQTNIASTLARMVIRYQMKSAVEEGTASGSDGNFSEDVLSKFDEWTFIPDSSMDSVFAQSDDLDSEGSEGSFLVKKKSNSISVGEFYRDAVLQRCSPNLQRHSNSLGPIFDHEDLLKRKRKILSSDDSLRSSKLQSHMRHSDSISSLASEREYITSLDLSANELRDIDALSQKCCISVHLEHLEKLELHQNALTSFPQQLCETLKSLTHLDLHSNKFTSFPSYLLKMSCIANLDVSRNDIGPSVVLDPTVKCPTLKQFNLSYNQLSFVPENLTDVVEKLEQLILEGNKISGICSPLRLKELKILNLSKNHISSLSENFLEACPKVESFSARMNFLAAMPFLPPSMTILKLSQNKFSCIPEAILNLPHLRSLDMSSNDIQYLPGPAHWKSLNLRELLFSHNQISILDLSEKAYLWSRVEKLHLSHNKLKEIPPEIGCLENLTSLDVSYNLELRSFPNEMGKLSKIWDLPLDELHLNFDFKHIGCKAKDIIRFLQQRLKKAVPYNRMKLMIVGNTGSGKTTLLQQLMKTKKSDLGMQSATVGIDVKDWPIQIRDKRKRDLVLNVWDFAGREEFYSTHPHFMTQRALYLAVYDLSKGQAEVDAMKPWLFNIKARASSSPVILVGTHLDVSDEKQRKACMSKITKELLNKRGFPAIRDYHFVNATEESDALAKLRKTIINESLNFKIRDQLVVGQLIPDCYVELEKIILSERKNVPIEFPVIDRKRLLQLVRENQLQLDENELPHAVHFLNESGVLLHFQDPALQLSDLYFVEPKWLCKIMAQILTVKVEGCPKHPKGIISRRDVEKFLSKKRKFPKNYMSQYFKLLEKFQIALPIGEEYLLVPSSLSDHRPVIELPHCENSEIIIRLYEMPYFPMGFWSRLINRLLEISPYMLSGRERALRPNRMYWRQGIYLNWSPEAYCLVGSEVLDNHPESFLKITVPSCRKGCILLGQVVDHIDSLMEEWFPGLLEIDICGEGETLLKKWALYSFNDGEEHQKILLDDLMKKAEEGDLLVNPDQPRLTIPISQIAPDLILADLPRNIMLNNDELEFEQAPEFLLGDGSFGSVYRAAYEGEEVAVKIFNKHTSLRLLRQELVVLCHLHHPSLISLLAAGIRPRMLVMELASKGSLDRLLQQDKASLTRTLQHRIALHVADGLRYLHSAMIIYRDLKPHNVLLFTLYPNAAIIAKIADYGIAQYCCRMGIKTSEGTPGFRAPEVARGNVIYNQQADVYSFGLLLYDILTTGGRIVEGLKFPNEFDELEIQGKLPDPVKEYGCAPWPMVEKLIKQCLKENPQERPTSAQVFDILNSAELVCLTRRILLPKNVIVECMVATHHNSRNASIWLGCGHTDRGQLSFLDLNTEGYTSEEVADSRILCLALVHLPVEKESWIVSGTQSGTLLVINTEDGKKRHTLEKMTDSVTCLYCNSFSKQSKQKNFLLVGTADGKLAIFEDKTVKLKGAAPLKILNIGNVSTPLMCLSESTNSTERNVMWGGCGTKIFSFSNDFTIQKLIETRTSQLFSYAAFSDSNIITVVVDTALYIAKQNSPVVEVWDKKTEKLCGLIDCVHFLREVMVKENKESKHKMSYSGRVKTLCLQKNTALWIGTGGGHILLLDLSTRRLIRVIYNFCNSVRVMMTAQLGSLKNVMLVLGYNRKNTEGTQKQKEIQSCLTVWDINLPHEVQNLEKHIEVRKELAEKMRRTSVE

Row | Molecule | LRRK2 mutation-induced neurite length phenotype [1] | reduced neurite length ([1]; in the context of VPS35 knockdown by shRNA) | neurite length ([1]; in the context of overexpression of wild-type LRRK2) | lysosomal phenotypes (swollen lysosomes, reduced lysosomal MPR) [2] | co-immunoprecipitation with LRRK2 [3] | binding result [4] | LRRK2 G2019S dopamine neuron loss phenotype [5]
1 | RAB7L1 protein in mouse brain lysate (endogenous) (enzyme, UniProt Q91YQ1 1-204, looked up, Detected by Western blot (Santa Cruz sc-81924) after LRRK2 immunoprecipitation) MGSRDHLFKVLVVGDAAVGKTSLVQRYSQDSFSKHYKSTVGVDFALKVLQWSDSEMVRLQLWDIAGQERFTSMTRLYYRDASACVIMFDVTNATTFSNSQRWKQDLDSKLTLPSGEPVPCLLLANKSDLSPWAVSRDQIDRFSKENGFTGWTETSVKENKNINEAMRVLVEKMMNNSREDVMSLSTQGNYINLQAKPSSGWTCC | significantly suppressed the LRRK2 mutation-induced neurite length phenotype | not rescued | did not modify neurite length | suppressed the lysosomal phenotypes | effectively co-precipitated | binds | 
2 | CA RAB7L1: constitutively active RAB7L1 (Q67L, deficient in GTPase activity); in b298 the same words denote the fly transgene (protein, UniProt O14966 1-203, looked up, variant Q67L) Ras-related protein Rab-7L1: MGSRDHLFKVLVVGDAAVGKTSLVQRYSQDSFSKHYKSTVGVDFALKVLQWSDYEIVRLQLWDIAGLERFTSMTRLYYRDASACVIMFDVTNATTFSNSQRWKQDLDSKLTLPNGEPVPCLLLANKCDLSPWAVSRDQIDRFSKENGFTGWTETSVKENKNINEAMRVLIEKMMRNSTEDIMSLSTQGDYINLQTKSSSWSCC | significantly suppressed |  |  |  |  |  | rescued the LRRK2 G2019S dopamine neuron loss phenotype
